Source: patent US20250090676A1 (SUTRO BIOPHARMA, published 2025)

How the values were obtained:
[1] = target: T1, cynomolgus monkey folate receptor alpha (cynomolgus monkey, UniProt P15328 25-234 (human entry)); assay: FACS, CHO-cFOLR1 cells
T1 construct: Expressed on the surface of stably transfected CHO cells; also called cyno FolR1; CHO-cyno FolR1
Protocol: (§1) CHO cells were transfected to stably express human (CHO-hFOLR1), cynomolgus (CHO-cFOLR1), or mouse (CHO-mFOLR1) target molecule FOLR1 on the cell surface. Parental CHO cells were used as a negative control to determine background binding levels. Parental CHO and stably transfected CHO-hFOLR1, CHO-cFOLR1, and CHO-mFOLR1 cells were cultured in Ham's F-12: high glucose DMEM (50:50) (Corning, Cellgro-Mediatech) supplemented with 10% heat-inactivated fetal bovine serum (Corning, Cellgro-Mediatech), 1% Penicillin/Streptomycin (Corning, Cellgro-Mediatech) and 2 mmol/L-glutamax (Life Technology).
(§2) A mixture of fluoresecent-labeled parental CHO cells and unlabeled CHO-hFOLRlcells were prepared as follows. Parental CHO cells were washed twice in PBS and incubated in PBS containing with 1 nM CellTrace™ Oregon Green488® (Life Technologies) at 37° C. for 30 minutes. Labeled parental CHO cells were then washed 2× with Ham's F-12 media and 2× with FACS buffer (PBS with 1% bovine serum albumin). Unlabeled CHO-hFOLR1 cells were similarly washed and prepared. Labeled parental CHO and unlabeled CHO-hFOLR1 cells were combined at 1:1 ratio and seeded at 50 μL per well (200,000 cells per well) in 96 well polypropylene plates. Cells were mixed with 50 μL of test antibodies (i.e., anti-FOLR1 variants) serially diluted in FACS buffer and incubated on ice for 60 mins. […] Data were analyzed using FlowJo® software (FlowJo, LLC; Ashland, OR) to determine mean fluorescence intensities. Binding constants were calculated using the statistical software, GraphPad Prism (GraphPad Software; La Jolla, CA) using the nonlinear regression equation, one site-specific binding with Hill slope. Secondary antibody alone was used as a control, in addition to measuring non-specific antibody binding to CHO parental cells.

[2] = target: T2, human folate receptor alpha (hFOLR1) (human, UniProt P15328 25-234); assay: FACS, CHO-hFOLR1 cells;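 further: flow cytometry of serially diluted antibodies binding CHO cells stably expressing the receptor, 60 min on ice, mixed with dye-tagged parental CHO as background control, one-site specific fit with Hill slope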
T2 construct: endogenous on FOLR1-positive KB and Igrov1 cells (cell killing); also called human FolR1; FolRα
T2 sequence (P15328 25-234 limits assumed): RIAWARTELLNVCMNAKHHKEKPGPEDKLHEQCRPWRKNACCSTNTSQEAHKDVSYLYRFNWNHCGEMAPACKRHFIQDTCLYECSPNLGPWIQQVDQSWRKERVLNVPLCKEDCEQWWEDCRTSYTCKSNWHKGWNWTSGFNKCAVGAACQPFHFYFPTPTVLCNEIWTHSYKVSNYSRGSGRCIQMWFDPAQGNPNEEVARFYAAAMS

[3] = target: T3, murine folate receptor alpha (mouse, UniProt P35846 25-232); assay: FACS, CHO-mFOLR1 cells;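 further: flow cytometry binding of serially diluted test antibodies to transfected CHO cells on ice, mean fluorescence intensity, parental CHO cells give background, Kd from one-site specific binding fit with Hill slope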
T3 construct: Expressed on the surface of stably transfected CHO cells; also called mouse FolR1; CHO-mouse FolR1
T3 sequence (P35846 25-232 limits assumed): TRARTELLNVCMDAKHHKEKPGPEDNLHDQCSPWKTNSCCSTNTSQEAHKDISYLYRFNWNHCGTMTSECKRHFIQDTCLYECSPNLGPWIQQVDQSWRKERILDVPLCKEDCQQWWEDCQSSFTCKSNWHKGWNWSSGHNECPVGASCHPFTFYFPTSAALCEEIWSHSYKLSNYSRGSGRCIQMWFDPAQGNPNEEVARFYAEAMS
Protocol: as §1, §2

[4] = target: T2, human folate receptor alpha (hFOLR1); assay: cell-based or functional assay

T1 sequence (P15328 other isoform, or with tags, fused parts or gaps limits assumed): as the sequence (P15328 25-234 limits assumed) above, with I2T, W4R, R37K, Q117R, A146P, H171Y counted along it

Binder	Bmax (MFI) [1] [MFI]	Kd [1] [nM]	Bmax (MFI) [2] [MFI]	Kd [2] [nM]	Bmax (MFI) [3] [MFI]	Kd [3] [nM]	Igrov, 2° Antibody Cell Killing, Nb-SC239: EC50 [4] [nM]	Igrov, 2° Antibody Cell Killing, Nb-SC239: Span [4] [%]	KB, 2° Antibody Cell Killing, Nb-239: EC50 [4] [nM]	KB, 2° Antibody Cell Killing, Nb-239: Span [4] [%]	binding result [3]
SRP1848-A01 (antibody, V domains shown, HC variant paired with trastuzumab LC, cell-free expressed, HIS- and FLAG-tagged; also called Antibody 1) VH: EVQLVESGGGLVQPGGSLRLSCAASGFNITRYSIHWVRQAPGKGLEWVAGILPESGGTSYADSVKGRFTISADTSKNTAYLQMNSLRAEDTAVYYCARHIYPWDWFSNYVLDYWGQGTLVTVSS VL: not shown	22600	0.44	25900	0.39	16500	0.8	0.015	71	0.064	94	–
SRP1848-F04 (antibody, V domains shown, HC variant paired with trastuzumab LC, cell-free expressed, HIS- and FLAG-tagged; also called Antibody 39) VH: EVQLVESGGGLVQPGGSLRLSCAASGFNISNYSIHWVRQAPGKGLEWVGEIYPIDGITDYADSVKGRFTISADTSKNTAYLQMNSLRAEDTAVYYCARGSWFWRSGYGYYLDYWGQGTLVTVSS VL: not shown	26400	0.55	26900	0.73	2740	11	0.015	73	0.096	93	–
SRP1848-A07 (antibody, V domains shown, HC variant paired with trastuzumab LC, cell-free expressed, HIS- and FLAG-tagged; also called Antibody 5) VH: EVQLVESGGGLVQPGGSLRLSCAASGFNIGYHSIHWVRQAPGKGLEWVGEIFPVDGTTDYADSVKGRFTISADTSKNTAYLHMNSLRAEDTAVYYCARGFWAWRSGYGYYLDYWGQGTLVTVSS VL: not shown	23600	0.43	29200	0.61	9650	0.9	0.029	68	0.062	95	–
SRP1848-B05 (antibody, V domains shown, HC variant paired with trastuzumab LC, cell-free expressed, HIS- and FLAG-tagged; also called Antibody 12) VH: EVQLVESGGGLVQPGGSLRLSCAASGFNISNYYIHWVRQAPGKGLEWVGGISPIDGYTDYADSMKGRFTISADTSKNTAYLQMSSLRAEDTAVYYCARGSWFWQSGYGYYLDYWGQGTLVTVSS VL: not shown	21900	0.64	24500	0.65	–	–	0.04	72	0.065	94	no binding
SRP1848-A04 (antibody, V domains shown, HC variant paired with trastuzumab LC, cell-free expressed, HIS- and FLAG-tagged; also called Antibody 3) VH: EVQLVESGGGLVQPGGSLRLSCAASGFNIDQSSIHWVRQAPGKGLEWVGVIYPVDGTTDYADSVKGRFTISADTSKNTAYLQMNSLRAEDTAVYYCARGAWSWRSGYGYYIDYWGQGTLVTVSS VL: not shown	23100	0.3	26800	0.43	3890	2	0.015	64	0.052	92	–
SRP1848-A10 (antibody, V domains shown, HC variant paired with trastuzumab LC, cell-free expressed, HIS- and FLAG-tagged; also called Antibody 8) VH: EVQLVESGGGLVQPGGSLRLSCAASGFNIRKYSIHWARQAPGKGLEWVGDIFPIDDITDYADSVKGRFTISADTSKNTAYLQMNSLRAEDTAVYYCARGSWSWPSGHSYYLDYWGQGTLVTVSS VL: not shown	14800	0.47	27100	0.66	10200	1.2	0.027	75	0.033	96	–
SRP1848-B06 (antibody, V domains shown, HC variant paired with trastuzumab LC, cell-free expressed, HIS- and FLAG-tagged; also called Antibody 13) VH: EVQLVESGGGLVQPGGSLRLSCAASGFNISNYYIHWVRQAPGKGLEWVGGITPIDGYTDYADSVKGRFTISADTSKNTAYLQMNSLRAEDTAVYYCARGFWSWPSGYGYYQDYWGQGTLVTVSS VL: not shown	26800	1.21	25100	0.67	–	–	0.022	72	0.058	95	no binding
SRP1848-A06 (antibody, V domains shown, HC variant paired with trastuzumab LC, cell-free expressed, HIS- and FLAG-tagged; also called Antibody 4) VH: EVQLVESGGGLVQPGGSLRLSCAASGFNIGNSYIHWVRQAPGKGLEWVGGITPIDGNTDYADSVKGRFTISADTSKNTAYLQMNSLRAEDTAVYYCARGAWSWRSGYGYYIDYWGQGTLVTVSS VL: not shown	20200	0.3	24500	0.47	2770	2.4	–	72	0.046	93	–
SRP1848-B03 (antibody, V domains shown, HC variant paired with trastuzumab LC, cell-free expressed, HIS- and FLAG-tagged; also called Antibody 10) VH: EVQLVESGGGLVQPGGSLRLSCAASGFNISMKYIHWVRQAPGKGLEWVGGITPIDGMTDYADSVKGRFTISADTSKNTAYLQMNSLRAEDTAVYYCARGSWSWPSGYSYYLDYWGQGTLVTVSS VL: not shown	17200	0.41	26300	0.82	2720	6.4	0.028	66	0.05	94	–
SRP1848-B04 (antibody, V domains shown, HC variant paired with trastuzumab LC, cell-free expressed, HIS- and FLAG-tagged; also called Antibody 11) VH: EVQLVESGGGLVQPGGSLRLSCAASSFNISNHSIHWVRQAPGKGLEWVGEIYPVDGITDYADSVKGRFTISADTSKNTAYLQMNSLRAEDTAVYYCARGRYSWRAGYSYYLDYWGQGTLVTVSS VL: not shown	27800	0.65	27800	0.72	2190	17.9	0.018	70	0.035	94	–
SRP1848-A08 (antibody, V domains shown, HC variant paired with trastuzumab LC, cell-free expressed, HIS- and FLAG-tagged; also called Antibody 6) VH: EVQLVESGGGLVQPGGSLRLSCAASGSNIRKHSIHWVRQAPGKGLEWVGSIYPNDGTTDYADSVKGRFTISADTSKNTAYLQMNSLRAEDTAVYYCARGSWFWRAGYGYYLDYWGQGTLVTVSS VL: not shown	26200	0.45	28600	0.62	3200	2.5	0.013	65	0.039	93	–
SRP1848-B01 (antibody, V domains shown, HC variant paired with trastuzumab LC, cell-free expressed, HIS- and FLAG-tagged; also called Antibody 9) VH: EVQLVESGGGLVQPGGSLRLSCAASGFNIRNYSIHWVRQAPGKGLEWVGEIYPVDGITDYADSVKGRFTISADTSKNTAYLQMNSLRAEDTAVYYCARGFWSWPSGYSYFLDYWGQGTLVTVSS VL: not shown	23900	0.83	26600	1.06	3400	16.4	0.031	82	0.064	95	–
SRP1848-A09 (antibody, V domains shown, HC variant paired with trastuzumab LC, cell-free expressed, HIS- and FLAG-tagged; also called Antibody 7) VH: EVQLVESGGGLVQPGGSLRLSCAASGFNIRKQSIHWVRQAPGKGLEWVGSIFPNDGTTDYADSVKGRFTISADTSKNTAYLQVNSLRAEDTAVYYCARGSWFWRSGYGYFLEYWGQGTLVTVSS VL: not shown	20200	0.31	28900	0.61	7990	1	0.026	71	–	93	–
